We go through one substance from article doi:10.1101/600387.

For the assay, the target named is Sulfolobus acidocaldarius R2-like ligand-binding oxidase (Sulfolobus acidocaldarius). Briefly: crystal structure.

On to “Sulfolobus acidocaldarius R2-like ligand-binding oxidase (enzyme)”, for which the stoichiometry N – broadly, the number of molecules, sites or subunits per partner or assembly – came out at 2.
